Measurements: article PMC6628914

Biological target: HIV-1 BaL envelope (Env, gp120-gp41) on HIV-1 BaL pseudovirions (HIV-1 BaL, Env clone BaL.01) (UniProt Q2MKA9)
Assay: two-color fluorescence correlation spectroscopy (FCS)

mAb b12 (IgG), Alexa 647-labelled (antibody)
percent of mAb virion-bound (slower diffusion coefficient): 42%
